Measurements reported in patent US20030170203A1 (Human Genome Sciences, published 2003).

Assays:
Assay in all cases: flow cytometry on transiently transfected cells
[1] = target: T1, CD30 on transiently transfected cells (UniProt P28908 19-595, limits assumed)
T1 construct: whole, on cells
T1 sequence (looked up): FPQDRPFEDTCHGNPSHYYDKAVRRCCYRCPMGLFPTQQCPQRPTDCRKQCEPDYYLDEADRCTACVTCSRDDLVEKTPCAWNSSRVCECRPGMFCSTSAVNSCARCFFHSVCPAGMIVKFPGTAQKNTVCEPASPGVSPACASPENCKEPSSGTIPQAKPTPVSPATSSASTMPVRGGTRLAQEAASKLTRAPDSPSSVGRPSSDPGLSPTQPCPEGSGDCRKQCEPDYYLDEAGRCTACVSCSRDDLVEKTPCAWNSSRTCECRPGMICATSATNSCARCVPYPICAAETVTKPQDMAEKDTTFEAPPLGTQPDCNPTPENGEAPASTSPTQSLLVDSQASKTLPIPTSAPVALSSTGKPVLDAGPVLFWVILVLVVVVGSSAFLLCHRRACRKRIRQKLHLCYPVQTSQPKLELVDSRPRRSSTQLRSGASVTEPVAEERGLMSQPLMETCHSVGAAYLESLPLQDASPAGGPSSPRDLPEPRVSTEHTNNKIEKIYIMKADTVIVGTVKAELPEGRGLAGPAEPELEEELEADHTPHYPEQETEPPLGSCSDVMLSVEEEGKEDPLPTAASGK
Description: (§1) One million cells, in 0.1 ml of FACS buffer (PBS, 0.1% BSA, 0.1% NaN₃), were incubated with 0.1-1 microgram of protein or antibody at RT for 15 min. The cells were washed with 3 ml of FACS buffer, reacted with biotinylated primary antibody, and stained with PE-conjugated secondary antibody at RT for 15 min. Cells were then washed again, resuspended in 0.5 microgram/ml of propidium iodide, and live cells were gated and analyzed on a FACScan using the CellQuest software (BD Biosciences).

[2] = target: T2, DR4 on transiently transfected cells (UniProt O00220 24-468, limits assumed)
T2 construct: whole, on cells
T2 sequence (looked up): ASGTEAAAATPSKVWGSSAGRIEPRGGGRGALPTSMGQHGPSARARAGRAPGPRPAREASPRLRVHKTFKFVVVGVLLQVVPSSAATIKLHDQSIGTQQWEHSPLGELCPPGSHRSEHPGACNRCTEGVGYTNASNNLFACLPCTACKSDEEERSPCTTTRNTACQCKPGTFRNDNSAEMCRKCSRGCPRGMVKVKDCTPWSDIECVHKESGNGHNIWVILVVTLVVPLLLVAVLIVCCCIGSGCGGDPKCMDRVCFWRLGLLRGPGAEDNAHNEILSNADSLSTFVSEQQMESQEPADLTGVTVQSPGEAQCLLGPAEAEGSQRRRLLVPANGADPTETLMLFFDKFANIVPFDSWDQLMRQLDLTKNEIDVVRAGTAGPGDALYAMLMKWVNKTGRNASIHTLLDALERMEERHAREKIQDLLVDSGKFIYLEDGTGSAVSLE
Description: as §1

[3] = target: T3, DR5 on transiently transfected cells (UniProt O14763 56-440, limits assumed)
T3 construct: whole, on cells
Description: as §1

[4] = target: T4, DcR2 on transiently transfected cells (UniProt Q9UBN6 56-386, limits assumed)
T4 construct: whole, on cells
T4 sequence (looked up): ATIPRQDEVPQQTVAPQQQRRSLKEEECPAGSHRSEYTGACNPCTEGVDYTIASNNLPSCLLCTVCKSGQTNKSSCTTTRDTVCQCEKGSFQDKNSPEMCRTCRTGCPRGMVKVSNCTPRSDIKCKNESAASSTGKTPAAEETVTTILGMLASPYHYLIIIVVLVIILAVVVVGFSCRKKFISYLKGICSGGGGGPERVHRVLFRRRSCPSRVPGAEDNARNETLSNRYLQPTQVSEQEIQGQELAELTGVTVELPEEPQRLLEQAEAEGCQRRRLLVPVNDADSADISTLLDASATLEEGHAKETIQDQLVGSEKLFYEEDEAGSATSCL
Description: as §1

[5] = target: T5, 4-1BB on transiently transfected cells (UniProt Q07011 24-255, limits assumed)
T5 construct: whole, on cells
Description: as §1

[6] = target: T6, TNFR2 on transiently transfected cells (UniProt P20333 23-461, limits assumed)
T6 construct: whole, on cells
T6 sequence (looked up): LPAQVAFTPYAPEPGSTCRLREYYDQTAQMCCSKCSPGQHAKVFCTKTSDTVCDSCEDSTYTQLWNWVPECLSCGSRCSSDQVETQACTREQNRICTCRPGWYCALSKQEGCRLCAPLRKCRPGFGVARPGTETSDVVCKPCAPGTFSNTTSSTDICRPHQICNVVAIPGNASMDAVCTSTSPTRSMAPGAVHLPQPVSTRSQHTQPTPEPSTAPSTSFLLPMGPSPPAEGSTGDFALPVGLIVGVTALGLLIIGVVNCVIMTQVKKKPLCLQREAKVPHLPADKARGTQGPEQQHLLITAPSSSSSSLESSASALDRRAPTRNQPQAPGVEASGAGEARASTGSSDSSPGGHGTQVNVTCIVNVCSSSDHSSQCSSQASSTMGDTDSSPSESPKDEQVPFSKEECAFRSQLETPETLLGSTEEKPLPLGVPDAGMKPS
Description: as §1

[7] = target: T7, RANK on transiently transfected cells (UniProt Q9Y6Q6 30-616, limits assumed)
T7 construct: whole, on cells
T7 sequence (looked up): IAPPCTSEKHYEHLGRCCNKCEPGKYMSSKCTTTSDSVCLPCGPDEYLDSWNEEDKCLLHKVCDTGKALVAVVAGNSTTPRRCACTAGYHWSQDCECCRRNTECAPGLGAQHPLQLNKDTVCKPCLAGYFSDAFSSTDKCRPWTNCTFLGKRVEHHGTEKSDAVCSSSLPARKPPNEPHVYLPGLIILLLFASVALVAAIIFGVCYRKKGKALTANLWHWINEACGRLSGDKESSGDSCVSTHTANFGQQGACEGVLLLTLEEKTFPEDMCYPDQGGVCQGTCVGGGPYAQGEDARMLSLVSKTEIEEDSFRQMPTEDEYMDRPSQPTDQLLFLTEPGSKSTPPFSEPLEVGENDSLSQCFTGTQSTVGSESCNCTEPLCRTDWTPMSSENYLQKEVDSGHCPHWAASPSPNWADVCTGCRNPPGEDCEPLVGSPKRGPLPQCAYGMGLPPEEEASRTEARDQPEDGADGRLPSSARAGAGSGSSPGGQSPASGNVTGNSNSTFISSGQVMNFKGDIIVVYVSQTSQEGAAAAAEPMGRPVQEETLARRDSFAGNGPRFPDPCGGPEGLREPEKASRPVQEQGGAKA
Description: as §1

Measured: binding result

T5 sequence (Q07011 24-255 limits assumed): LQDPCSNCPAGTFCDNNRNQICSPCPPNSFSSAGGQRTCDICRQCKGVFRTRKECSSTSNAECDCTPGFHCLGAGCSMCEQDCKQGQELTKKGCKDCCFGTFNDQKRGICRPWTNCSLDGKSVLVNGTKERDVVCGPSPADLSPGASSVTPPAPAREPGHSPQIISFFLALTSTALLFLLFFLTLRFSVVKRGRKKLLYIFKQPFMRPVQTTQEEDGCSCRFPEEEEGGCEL

B1: FLAG-tagged soluble form of TNF-gamma-beta (aa 72-251) (ligand, human, UniProt O95150 72-251, looked up)
chain: LKGQEFAPSHQQVYAPLRADGDKPRAHLTVVRQTPTQHFKNQFPALHWEHELGLAFTKNRMNYTNKFLLIPESGDYFIYSQVTFRGMTSECSEIRQAGRPNKPDSITVVITKVTDSYPEPTQLLMGTKSVCEVGSNWFQPIYLGAMFSLQEGDKLMVNVSDISLVDYTKEDKTFFGAFLL
notes: also called FLAG-TL1β; FLAG-TNF-gamma-beta; not shown: FLAG tag of vector pFLAGCMV1
no binding: all assays above
